# Laboratory results: patent US20090099343A1
# “And” between values parts separate entries of the source, which are not always exact repeats. Identical values can stand only once.
# Target: T1, PrP^Sc, pathogenic prion protein in brain homogenate of RML PrP^Sc+ Balb-c mice (mouse), P04925
# Experiment: bead pull-down from PrP^Sc+ mouse brain homogenate; ELISA
# T1 sequence (P04925 23-230 limits assumed): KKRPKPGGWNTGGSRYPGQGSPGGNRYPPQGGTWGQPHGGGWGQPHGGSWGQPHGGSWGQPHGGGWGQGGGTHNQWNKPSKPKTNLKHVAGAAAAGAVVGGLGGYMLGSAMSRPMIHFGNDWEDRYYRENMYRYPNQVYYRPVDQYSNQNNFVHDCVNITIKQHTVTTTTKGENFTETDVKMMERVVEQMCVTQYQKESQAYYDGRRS
row,Binder,ELISA A405nm [A405nm]
1,KKRPKGGG (modifications not checked) [Peptide reagent SEQ ID NO:119],0.61
2,KKRPKGGG (modifications not checked) [Peptide reagent SEQ ID NO:120],0.631
3,KKRPKGGG (modifications not checked) [Peptide reagent SEQ ID NO:121],0.509
4,KKRPKGGG (modifications not checked) [Peptide reagent SEQ ID NO:122],0.503

# Target: T1, PrP^Sc, pathogenic prion protein in …
# Experiment: bead pull-down, NaCl dissociation of bound PrP^Sc; Western blot
row,Binder,recovery rate following 1.0 M NaCl elution
1,GGGKKRPKPGG (modifications not checked) [Peptide reagent SEQ ID NO:68],40% and 50%
2,GGGKKKKKKKK (modifications not checked) [Peptide reagent SEQ ID NO:85],40% and 50%
